The values below come from patent publication US20230122364A1.

The target in this assay is prefusion conformation-stabilized SARS-CoV-2 spike ectodomain (S2Pecto) protein (SARS-CoV-2) (UniProt P0DTC2). Kind of assay: ELISA on coated S2Pecto. For orientation: ELISA stands for enzyme-linked immunosorbent assay.

In turn, “rCR3022 (recombinant form of the cross-reactive SARS-CoV SRBD mAb CR3022) (antibody)” registered an EC50 of 0.0102 µg/mL.

The EC50 is the concentration that produces a half-maximal response.
